test system: Escherichia coli TOP10; test: shrunken log2 fold change of peptide-encoding DNA abundance (4.5 h post-induction vs induction); higher = less antimicrobial activity (less host growth inhibition); conditions: time post-induction: 4.5 h; library: site-saturation at positions 5, 18, 19, 20
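Note: peptides expressed intracellularly from a pBAD plasmid library in pooled LB shake-flask culture, induced with 0.3% L-arabinose, DNA abundance read by NGS, three biological replicates, DESeq2 with apeglm shrinkage.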

| Sequence | shrunken log2 fold change |
| --- | --- |
| RRIRDRPPRLPRPRPRPQAIPRP | 0.0512 |
| RRIRIRPPRLPRPRPRPHIMPRP | -1.41 |
| RRIRGRPPRLPRPRPRPKRSPRP | 0.301 |
| RRIRGRPPRLPRPRPRPMTSPRP | 0.445 |
| RRIRIRPPRLPRPRPRPNFTPRP | -0.545 |
| RRIRYRPPRLPRPRPRPPQSPRP | -0.118 |
| RRIRVRPPRLPRPRPRPQVNPRP | -0.795 |
| RRIRHRPPRLPRPRPRPTWIPRP | -0.206 |
| RRIRCRPPRLPRPRPRPWVMPRP | -0.221 |
| RRIRCRPPRLPRPRPRPCERPRP | -0.0644 |
| RRIRFRPPRLPRPRPRPIMHPRP | -0.212 |
| RRIRCRPPRLPRPRPRPCSCPRP | -1.33 |
| RRIRLRPPRLPRPRPRPYNNPRP | -1.03 |
| RRIRCRPPRLPRPRPRPWNWPRP | -0.0303 |
| RRIRHRPPRLPRPRPRPVICPRP | -0.0717 |
| RRIRVRPPRLPRPRPRPRNWPRP | 0.4 |
| RRIRPRPPRLPRPRPRPMQAPRP | -0.0135 |
| RRIRPRPPRLPRPRPRPRIEPRP | 0.175 |
| RRIRHRPPRLPRPRPRPGRYPRP | -0.017 |
| RRIRPRPPRLPRPRPRPIKHPRP | -0.31 |
| RRIRARPPRLPRPRPRPSPWPRP | 0.348 |
| RRIRNRPPRLPRPRPRPLAMPRP | -0.21 |
| RRIRKRPPRLPRPRPRPHKVPRP | -0.033 |
| RRIRVRPPRLPRPRPRPFTHPRP | -0.222 |
| RRIRWRPPRLPRPRPRPPCDPRP | 0.255 |

| Sequence | shrunken log2 fold change |
| --- | --- |
| RRIRFRPPRLPRPRPRPHQLPRP | -0.374 |
| RRIRNRPPRLPRPRPRPGKNPRP | 0.0906 |
| RRIRSRPPRLPRPRPRPARKPRP | 0.213 |
| RRIRVRPPRLPRPRPRPVGLPRP | 0.216 |
| RRIRSRPPRLPRPRPRPTWKPRP | 0.286 |
| RRIRCRPPRLPRPRPRPINVPRP | -0.307 |
| RRIRMRPPRLPRPRPRPHGDPRP | -0.0284 |
| RRIRKRPPRLPRPRPRPYFAPRP | -0.0674 |
| RRIRLRPPRLPRPRPRPACYPRP | -0.202 |
| RRIRSRPPRLPRPRPRPEGVPRP | 0.552 |
| RRIRMRPPRLPRPRPRPSKVPRP | 0.167 |
| RRIRIRPPRLPRPRPRPKVPPRP | 0.167 |
| RRIRGRPPRLPRPRPRPHAHPRP | 0.895 |
| RRIRGRPPRLPRPRPRPTCFPRP | 1.14 |
| RRIRRRPPRLPRPRPRPRTYPRP | -0.213 |
| RRIRYRPPRLPRPRPRPIIIPRP | -0.161 |
| RRIRHRPPRLPRPRPRPGVDPRP | -0.213 |
| RRIRERPPRLPRPRPRPMRIPRP | 0.257 |
| RRIRWRPPRLPRPRPRPARCPRP | 0.209 |
| RRIRWRPPRLPRPRPRPQWIPRP | 0.0797 |
| RRIRFRPPRLPRPRPRPAILPRP | 0.0816 |
| RRIRQRPPRLPRPRPRPANTPRP | -0.118 |
| RRIRYRPPRLPRPRPRPNLQPRP | -0.614 |
| RRIRDRPPRLPRPRPRPIYWPRP | 0.202 |
| RRIRPRPPRLPRPRPRPSYGPRP | -0.2 |

| Sequence | shrunken log2 fold change |
| --- | --- |
| RRIRGRPPRLPRPRPRPQSQPRP | 0.139 |
| RRIRCRPPRLPRPRPRPWEMPRP | -0.0816 |
| RRIRNRPPRLPRPRPRPIKDPRP | -0.4 |
| RRIRCRPPRLPRPRPRPWCPPRP | -0.281 |
| RRIRIRPPRLPRPRPRPADHPRP | -0.0431 |
| RRIRNRPPRLPRPRPRPKIDPRP | -0.626 |
| RRIRWRPPRLPRPRPRPTDPPRP | 0.374 |
| RRIRPRPPRLPRPRPRPCVRPRP | 0.14 |
| RRIRTRPPRLPRPRPRPNIHPRP | -0.586 |
| RRIRDRPPRLPRPRPRPLALPRP | 0.0811 |
| RRIRRRPPRLPRPRPRPVLVPRP | 0.487 |
| RRIRYRPPRLPRPRPRPLAAPRP | 0.153 |
| RRIRRRPPRLPRPRPRPNHRPRP | -0.0368 |
| RRIRCRPPRLPRPRPRPMQGPRP | -0.0484 |
| RRIRERPPRLPRPRPRPSLGPRP | -0.143 |
| RRIRKRPPRLPRPRPRPWTVPRP | -1.8 |
| RRIRKRPPRLPRPRPRPRIGPRP | 0.128 |
| RRIRLRPPRLPRPRPRPSCIPRP | -0.461 |
| RRIRARPPRLPRPRPRPYTYPRP | -0.458 |
| RRIRCRPPRLPRPRPRPHLAPRP | -0.0147 |
| RRIRTRPPRLPRPRPRPQGTPRP | 0.0402 |
| RRIRLRPPRLPRPRPRPWGMPRP | -0.0457 |
| RRIRFRPPRLPRPRPRPHGGPRP | 0.0953 |
| RRIRHRPPRLPRPRPRPMHYPRP | -0.289 |
| RRIRERPPRLPRPRPRPFVQPRP | -0.386 |

Source: the supplement of paper PMC9112550, “Optimization of the antimicrobial peptide Bac7 by deep mutational scanning” (BMC Biology, 2022)
